Results from patent US20210253679A1 (NATIONAL RESEARCH COUNCIL OF CANADA, published 2021).
Substitutions are numbered along the chain they refer to.

B1: M79 sdAb (VHH)
VHH: QVKLEESGGGLVQAGGSLKLSCAASGSTFSSSSVGWYRQAPGQQRELVAAITSGGSTNTADSVKGRFTMSRDNAKNTVYLQMRDLKPEDTAVYYCNVAGRNWVPISRYSPGPYWGQGTQVTVSS
notes: also called M79 VHH
B2: M75 sdAb (VHH)
VHH: QVQLVESGGGFVQAGGSLRLSCAASGRTFDNYVMAWFRQAPGKEREFVASISGSGSITNYANSVKDRFTISRDSAKNAIYLQMNSLKPEDTALYYCAAGSRRTYYREPKFYPSWGQGTQVTVSS
notes: also called M75 VHH
B3: R11-H4 (VHH)
VHH: QVQLVESGGGLVQPGGSLRLSCAASGFLLRSNTMGWYRQAPGKERELVAFIRPSGLTNYNDAVQGRFTISRDNSKNTLYLQMNSLRAEDTAVYYCHTRPPFQRDSWGQGTLVTVSS
B4: R11 sdAb (VHH)
VHH: QVKLEESGGGLVQAGGSLRLSCVGPGFLLRSNTMGWYRQAPGKERELVAFIRPSGLTNYNDAVQGRFTISRDNAKNTVYLQMNALKPEDTAVYYCHTRPPFQRDSWGQGTQVTVSS
notes: also called R11 VHH
B5: R11-H3 (VHH)
VHH: B3 VHH with Q1E, A49S

Experiments:
rat serum albumin [1] = target: T1, rat serum albumin (rat, UniProt P02770 25-608); assay: SPR, single cycle kinetics, pH 7.4
T1 construct: also called RSA

human serum albumin [2] = target: T2, human serum albumin (human, UniProt P02768 25-609); assay: SPR, single cycle kinetics, pH 7.4
T2 construct: also called HSA

rhesus serum albumin [3] = target: T3, rhesus serum albumin (rhesus, UniProt Q28522 17-600); assay: SPR, single cycle kinetics, pH 7.4
T3 construct: also called RhSA

rat serum albumin [4] = target: T1, rat serum albumin; assay: SPR, single cycle kinetics, pH 7.4; remark: listed apart in the source
human serum albumin [5] = target: T2, human serum albumin; assay: SPR, single cycle kinetics, pH 7.4; remark: listed apart in the source
rhesus serum albumin [6] = target: T3, rhesus serum albumin; assay: SPR, single cycle kinetics, pH 7.4; remark: listed apart in the source
rat serum albumin [7] = target: T1, rat serum albumin; assay: SPR, single cycle kinetics, pH 5.5
human serum albumin [8] = target: T2, human serum albumin; assay: SPR, single cycle kinetics, pH 5.5
rhesus serum albumin [9] = target: T3, rhesus serum albumin; assay: SPR, single cycle kinetics, pH 5.5
mouse serum albumin [10] = target: T4, mouse serum albumin (mouse, UniProt P07724 25-608); assay: ITC, pH 7.4
T4 construct: also called MSA
T4 sequence (P07724 25-608 limits assumed): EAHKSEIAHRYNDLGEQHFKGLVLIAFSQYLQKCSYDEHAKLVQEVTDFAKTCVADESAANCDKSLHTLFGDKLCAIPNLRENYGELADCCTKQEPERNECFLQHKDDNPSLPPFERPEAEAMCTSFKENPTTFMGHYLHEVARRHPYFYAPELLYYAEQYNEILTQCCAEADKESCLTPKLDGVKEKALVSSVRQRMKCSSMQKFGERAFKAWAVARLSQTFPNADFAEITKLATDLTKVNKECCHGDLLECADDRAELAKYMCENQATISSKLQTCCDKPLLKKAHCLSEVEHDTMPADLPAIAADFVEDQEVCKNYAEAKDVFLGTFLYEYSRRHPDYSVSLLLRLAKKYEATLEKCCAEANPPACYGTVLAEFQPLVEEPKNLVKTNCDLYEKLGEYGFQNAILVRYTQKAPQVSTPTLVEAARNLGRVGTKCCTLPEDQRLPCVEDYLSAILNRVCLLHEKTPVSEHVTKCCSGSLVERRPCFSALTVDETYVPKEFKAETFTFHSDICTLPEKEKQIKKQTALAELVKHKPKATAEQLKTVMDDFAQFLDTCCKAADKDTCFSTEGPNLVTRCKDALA

rat serum albumin [11] = target: T1, rat serum albumin; assay: SPR, single cycle kinetics, pH 5.5; remark: listed apart in the source
human serum albumin [12] = target: T2, human serum albumin; assay: SPR, single cycle kinetics, pH 5.5; remark: listed apart in the source
rhesus serum albumin [13] = target: T3, rhesus serum albumin; assay: SPR, single cycle kinetics, pH 5.5; remark: listed apart in the source
mouse serum albumin [14] = target: T4, mouse serum albumin; assay: SPR, single cycle kinetics, pH 7.4
HSA domain 2 (DII) = target: T5, HSA domain 2 (DII) (human, UniProt P02768 213-409); assay: SPR, 100 nM VHH over an amine-coupled DII surface
T5 construct: domain: DII

rat serum albumin [15] = target: T1, rat serum albumin; assay: SPR, pH 7.4; complex binding, data not analyzable
human serum albumin [16] = target: T2, human serum albumin; assay: SPR, pH 7.4; complex binding, data not analyzable
rhesus serum albumin [17] = target: T3, rhesus serum albumin; assay: SPR, pH 7.4; complex binding, data not analyzable

Row | Binder | Kd (rat serum albumin [1]) [nM] | Kd (human serum albumin [2]) [nM] | Kd (rhesus serum albumin [3]) [nM] | Kd (rat serum albumin [4]) [nM] | Kd (human serum albumin [5]) [nM] | Kd (rhesus serum albumin [6]) [nM] | Kd (rat serum albumin [7]) [nM] | Kd (human serum albumin [8]) [nM] | Kd (rhesus serum albumin [9]) [nM] | Kd (mouse serum albumin [10]) [nM] | Kd (rat serum albumin [11]) [nM] | Kd (human serum albumin [12]) [nM] | Kd (rhesus serum albumin [13]) [nM] | Kd (mouse serum albumin [14]) [nM] | binding result (HSA domain 2 (DII)) | binding result (rat serum albumin [15]) | binding result (human serum albumin [16]) | binding result (rhesus serum albumin [17])
1 | B1 | 13 | 122 | 85 | 12.6 | 122 | 84.6 | 7 | 7 | 2 | 406 | 7.1 | 7.1 | 2 | – | – | – | – | –
2 | B2 | 315 | 1.2 | 2.9 | – | 1.2 | – | – | 735 | – | – | – | 735 | – | 510 | no binding (tested: 100 nM) | – | – | –
3 | B3 | – | – | – | – | – | – | – | – | – | – | – | – | – | – | – | binds | binds | binds
4 | B4 | 61.7 | 93 | 159 | 61.7 | 93.1 | 159 | 30 | 29 | 116 | 14 | 29.9 | 28.9 | 116 | – | – | – | – | –
5 | B5 | – | – | – | – | – | – | – | – | – | – | – | – | – | – | – | binds | binds | –
